Laboratory results: US20220025008A1 (FAPON BIOTECH, published 2022)
Numbering of substitutions follows the chain as printed. One block for each binder: values may come before it.

Molecular target: T1, Recombinant NT antigen (N-terminal pro-brain natriuretic peptide, NT-proBNP) (human, UniProt P16860 27-102)
T1 construct: domain: N-terminal pro-brain natriuretic peptide (NT-proBNP); also called recombinant NT protein; N-terminal pro-B-type natriuretic peptide
T1 sequence (looked up): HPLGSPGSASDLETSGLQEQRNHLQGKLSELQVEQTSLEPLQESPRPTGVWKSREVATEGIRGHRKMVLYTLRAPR
Assay: indirect ELISA, KD calculated from half-max OD at 4 coating concentrations
Description: Recombinant NT antigen was diluted with coating solution to 1 μg/ml a microplate overnight at 4° C.; which was washed twice with washing solution and patted dry on the next day; with addition of blocking solution (20% BSA+80% PBS) at 120 μL per well at 37° C. for 1 h and patted dry; added the diluted NT monoclonal antibody, 100 μL/well at 37° C. for 30 min (partial supernatant for 1 h); washed 5 times with washing solution and patted dry; added rabbit anti-goat IgG-HRP […] per well at 37° C. for 30 min; washed 5 times with washing solution and patted dry; added color developing solution A (50 μL/well), added color developing solution B (50 μL/well) for 10 min; added stop solution, 50 μL/well; followed by reading the OD value at 450 nm (reference 630 nm) on the microplate reader.
Data from the enzyme immunoassay indirect method were analyzed in the same way as the activity identification, with four gradients of 3 μg/ml, 1.5 μg/ml, 0.75 μg/ml and 0.375 μg/ml for coating; the antibody was diluted from 1000 ng/ml by 2 times to 0.977 ng/ml for loading sample. OD values corresponding to different antibody concentrations at different coating concentrations were obtained. Under the same coating concentration, data were plotted logarithmically with the antibody concentration as the abscissa and the OD value as the ordinate.

B1: Mutation 1 (antibody, V domains shown)
VH: QVRLQESGPSQVKPAQTLSLTCAISGFSITTYYIDWVRHTPGKPPEWLAQMTKDGNAVHQPTIRSRLSITRDTSKSQVFLKLTGVTTEDTAVYYCVRGIIDWGPGLLVTVSS
VL: QAVLTQPSSVSRSLGQTVSITCSGSSDQVGFGDYVNWFQLIPGSAPKTLIFGATSRIRGVPDRFSGSRSGNTATLTINSLQAEDEADYYCGSPNSRGGYVFGSGTRLTVLS
notes: also called mutant 1 antibody
Kd: 1.73 nM

B2: WT 1-5 (antibody)
heavy: QVRLQESGPSQVKPAQTLSLTCAISGPSLTTYYLDWVRHTPGKPPEWLAQMTKDANAVHNPTVRSRLSITRDTSKSQVFLKLTGVTTEDTAVYYCVKGLIDFGPGLLVTVSSASTTPPKVYPLTSCCGDTSSSIVTLGCLVSSYMPEPVTVTWNSGALTSGVHTFPAILQSSGLYSLSSVVTVPASTSGAQTFICNVAHPASSTKVDKRVEPGCPDPCKHCRCPPPELPGGPSVFIFPPKPKDTLTISGTPEVTCVVVDVGQDDPEVQFSWFVDNVEVRTARTKPREEQFNSTFRVVSALPIQHQDWTGGKEFKCKVHNEGLPAPIVRTISRTKGQAREPQVYVLAPPQEELSKSTLSVTCLVTGFYPDYIAVEWQKNGQPESEDKYGTTTSQLDADGSYFLYSRLRVDKNSWQEGDTYACVVMHEALHNHYTQKSISKPPGK
light: QAVLTQPSSVSRSLGQTVSITCSGSSDQVGPGDYLNWFQLIPGSAPKTLIFAASSRIRGVPDRFSGSRSGNTATLTINSLQAEDEADYYCGSANSRNYVWGSGTRLTVLSQPKSAPSVTLFPPSKEELDTNKATVVCLISDFYPGSVNVVWKADGSTINQNVKTTQASKQSNSKYAASSYLTLTGSEWKSKSSYTCEVTHEGSTVTKTVKPSECS
Kd: 22.6 nM

B6: Mutation 1-7 (antibody)
heavy: B2 heavy with P27F, L29V, A55G, N60Q, K97R, L99I
light: B2 light with Q28N, P31F, A52G, I57L, A93G, W100F
Kd: 1.53 nM

B7: Mutation 1-3 (antibody)
heavy: B2 heavy with P27F, L34I, A55G, V63L, K97R
light: B2 light with Q28N, P31F, L35V, A52G, S54Y, W100F
Kd: 1.52 nM

B14: Mutation 1-15 (antibody)
heavy: B2 heavy with P27F, L29V, L34I, A55G, V63L, K97R
light: B2 light with Q28N, P31F, L35V, A52G, S54T, W100F
Kd: 1.76 nM

B15: Mutation 1-13 (antibody)
heavy: B2 heavy with P27F, A55G, V63I, K97R, L99I
light: B2 light with P31F, A52G, S54Y, I57L, A93P, W100F
Kd: 2.09 nM

B16: Mutation 1-10 (antibody, V domains shown)
VH: B1 VH with I34L, Q60N, I99V
VL: QAVLTQPSSVSRSLGQTVSITCSGSSDQVGFGDYLNWFQLIPGSAPKTLIFGASSRLRGVPDRFSGSRSGNTATLTINSLQAEDEADYYCGSANSRNYVFGSGTRLTVLS
Kd: 3.2 nM

B18: Mutation 1-1 (antibody)
heavy: B2 heavy with P27F, L29I, A55G, V63I, K97R, L99I
light: B2 light with P31F, A52G, S54T, I57L, A93P, W100F
Kd: 2.51 nM

Second part, the binder after the results:

Kd: 17.8 nM
B3: WT 1-1 (antibody, V domains shown)
VH: B1 VH with F27P, I29V, G55A, Q60N, R97K, I99V
V domain: B16 VL with Q28N, F31P, L35I, G52A, S54Y, L57I, F100W

Kd: 2.45 nM
B4: Mutation 1-39 (antibody)
heavy: B2 heavy with P27F, L34I, A55G, V63L, K97R
light: B2 light with Q28N, P31F, L35V, A52G, S54Y, A93G, W100F

Kd: 3.12 nM
B5: Mutation 1-34 (antibody, V domains shown)
VH: B1 VH with I29V, I34L, Q60N, I99V
VL: B16 VL with S54Y

Kd: 1.84 nM
B8: Mutation 1-31 (antibody)
heavy: B2 heavy with P27F, A55G, N60Q, K97R, L99I
light: B2 light with Q28N, P31F, A52G, S54T, I57L, A93G, W100F

Kd: 2.07 nM
B9: Mutation 1-22 (antibody, V domains shown)
VH: B1 VH with I29L, I34L, Q60N, I99V
VL: B16 VL with S54Y

Kd: 1.57 nM
B10: Mutation 1-37 (antibody)
heavy: B2 heavy with P27F, L29I, A55G, V63I, K97R, L99I
light: B2 light with P31F, A52G, S54T, I57L, W100F

Kd: 3.48 nM
B11: WT 1-2 (antibody, V domains shown)
VH: B1 VH with F27P, I29L, G55A, I63L, R97K, I99V
V domain: B16 VL with Q28N, F31P, G52A, L57I, A93P, F100W

Kd: 0.944 nM
B12: Mutation 1-51 (antibody)
heavy: B2 heavy with P27F, L29V, L34I, A55G, V63L, K97R
light: B2 light with Q28N, P31F, L35V, A52G, S54Y, W100F

Kd: 2.16 nM
B13: Mutation 1-25 (antibody)
heavy: B2 heavy with P27F, L29V, A55G, V63I, K97R, L99I
light: B2 light with P31F, A52G, I57L, A93P, W100F

Kd: 0.855 nM
B17: Mutation 1-27 (antibody)
heavy: B2 heavy with P27F, L29I, L34I, A55G, V63L, K97R
light: B2 light with Q28N, P31F, L35V, A52G, W100F

Kd: 6.83 nM
B19: Mutation 1-49 (antibody)
heavy: B2 heavy with P27F, A55G, V63I, K97R, L99I
light: B2 light with P31F, A52G, S54T, I57L, A93P, W100F
